Biological target: CaM-Sepharose 4B (calmodulin on Sepharose resin) (UniProt P62157 1-149)
Experiment: pull-down; equilibrium binding of purified synGAP (1-500 nM, 300 µl) to 50 µl CaM-Sepharose 4B, 60 min; 50 mM Tris pH 7.5, 200 mM NaCl, 5 mM TCEP, 2 mM CaCl2; bound protein by quantitative immunoblot; hyperbolic fit
Settings: both partners purified

B1: sr-synGAP (residues 103-725) (domain or fragment)
chain: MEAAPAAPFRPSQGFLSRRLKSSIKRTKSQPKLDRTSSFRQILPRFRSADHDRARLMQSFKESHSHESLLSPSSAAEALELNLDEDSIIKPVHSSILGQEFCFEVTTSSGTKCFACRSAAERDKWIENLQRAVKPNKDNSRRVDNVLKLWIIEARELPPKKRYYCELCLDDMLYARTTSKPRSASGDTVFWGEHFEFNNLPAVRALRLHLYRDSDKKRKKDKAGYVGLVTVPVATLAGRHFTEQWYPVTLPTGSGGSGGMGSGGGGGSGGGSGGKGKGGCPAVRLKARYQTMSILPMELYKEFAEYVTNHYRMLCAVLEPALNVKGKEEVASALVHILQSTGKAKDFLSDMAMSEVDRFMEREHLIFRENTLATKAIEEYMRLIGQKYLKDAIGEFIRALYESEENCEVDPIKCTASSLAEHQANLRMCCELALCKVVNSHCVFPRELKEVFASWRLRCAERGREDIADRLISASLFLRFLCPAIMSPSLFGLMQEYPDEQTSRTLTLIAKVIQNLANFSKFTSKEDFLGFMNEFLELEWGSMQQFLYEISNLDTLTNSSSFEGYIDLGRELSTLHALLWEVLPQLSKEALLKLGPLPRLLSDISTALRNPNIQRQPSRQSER
B1 was tested, and the Kd was 210 ± 30 nM.

Source: publication PMC5040590, “A model for regulation by SynGAP-α1 of binding of synaptic proteins to PDZ-domain 'Slots' in the postsynaptic density” (eLife, 2016)
